From patent US20100291075A1 (THERACLONE SCIENCES, published 2010) come the findings set out here.

The target in this assay is recombinant GPI-linked rhesus GM-CSF on the surface of transiently transfected 293 cells (rhesus).

B1: 1783J22 human monoclonal antibody (whole IgG) (antibody, V domains shown)
VH: EVQLLQSGGGLTHPGGSLRLSCAASGFPFHKYTMTWVRQPPGKGLEWVSSVSGVNGKTYYSPSVRGRAIVSRDDSNSMLFLEIKNMTAGDTALYFCAKGPGGHLHYYYGLDVWGHGTSVTVSS
VL: DIQMTQSPSSLSASIGDRVTISCRASQAINNYVAWFQQSAGKAPKSLIYGASNLQPGVPPRFSGSVSGTNFSLTIDGLQSEDFATYFCQNYFGYPLTFGGGTTLEIKR
With B1, the 50% effective concentration (EC50 (read off the curve)) is approximately 0.05 µg/mL.
